As usually defined, the Kd is the constant that tells how readily two partners part at equilibrium. Usually koff stands for the first-order rate constant of dissociation. The term kon denotes the rate constant with which the complex forms.

Here are results for 31 substances from patent US20220033520A1.

For experiment [1], the target named is human FcRn complex (FCGRT and beta-2 microglobulin), recombinant, purified (human) (UniProt P55899). Briefly: SPR, anti-human Fab capture, pH 7.4, steady state. In general terms: Surface plasmon resonance follows binding to a sensor surface in real time, without labels.
Experiment [2] shares this target. As to the kind of experiment: SPR, anti-human Fab capture, pH 6, steady state.
For experiment [3] the target is unchanged. Briefly: SPR, protein L capture, pH 6, kinetic.
For experiment [4], the target named is human FcRn (FCGRT and beta-2 microglobulin) expressed on MDCK II cells (human) (UniProt P55899). As to the kind of experiment: cell-based or functional assay.
Experiment [5] deals with human FcRn complex (FCGRT and beta-2 microglobulin), recombinant, purified (human) (UniProt P55899). As to the kind of experiment: SPR, protein L capture, pH 7.4, steady state.

Sequence of human FcRn (FCGRT and beta-2 microglobulin) expressed on MDCK II cells (human) (P55899 24-365, chain 1 of 2): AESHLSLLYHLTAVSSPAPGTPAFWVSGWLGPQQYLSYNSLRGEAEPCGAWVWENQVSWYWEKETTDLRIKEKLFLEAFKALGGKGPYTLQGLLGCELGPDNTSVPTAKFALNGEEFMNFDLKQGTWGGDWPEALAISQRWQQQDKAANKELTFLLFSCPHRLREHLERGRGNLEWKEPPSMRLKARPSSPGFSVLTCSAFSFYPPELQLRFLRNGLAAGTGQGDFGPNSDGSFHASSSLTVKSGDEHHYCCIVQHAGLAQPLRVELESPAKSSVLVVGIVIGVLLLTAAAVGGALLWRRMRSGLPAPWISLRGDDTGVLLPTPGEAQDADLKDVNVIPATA
Sequence of human FcRn (FCGRT and beta-2 microglobulin) expressed on MDCK II cells (human) (P61769 21-119, chain 2 of 2, further chain): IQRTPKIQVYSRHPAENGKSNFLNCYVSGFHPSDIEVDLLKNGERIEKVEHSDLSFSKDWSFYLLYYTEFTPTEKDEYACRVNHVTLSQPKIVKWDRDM
Sequence of human FcRn complex (FCGRT and beta-2 microglobulin), recombinant, purified (human) (P55899 24-297 limits assumed, chain 1 of 2): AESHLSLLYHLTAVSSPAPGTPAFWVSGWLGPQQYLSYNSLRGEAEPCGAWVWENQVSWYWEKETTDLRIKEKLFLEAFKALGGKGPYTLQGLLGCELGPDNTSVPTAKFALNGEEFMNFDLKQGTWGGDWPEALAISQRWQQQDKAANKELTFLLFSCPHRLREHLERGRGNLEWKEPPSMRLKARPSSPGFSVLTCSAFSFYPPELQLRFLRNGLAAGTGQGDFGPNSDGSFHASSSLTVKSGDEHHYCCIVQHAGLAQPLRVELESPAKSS
Sequence of human FcRn complex (FCGRT and beta-2 microglobulin), recombinant, purified (human) (P61769 21-119 limits assumed, chain 2 of 2, further chain): as the sequence (P61769 21-119, chain 2 of 2, further chain) above

Turning to “anti-BACE1 hIgG1 antibody, Fc modification Q1 (M252Y/T307Q/Q311I/N434Y)”, the dissociation constant Kd in experiment [1] was determined as 157 nM; in experiment [2] it was 6.6 nM; in experiment [3], 4.69 nM; in experiment [5], 197 nM. Also, in experiment [3], the koff was 0.00349 s⁻¹. Also, the on-rate (kon) in experiment [3] amounted to 743000 M⁻¹ s⁻¹. The substance also gave a Transcytosis Normalized to WT (normalized to WT) in experiment [4] of 132.

“anti-Abeta hIgG4 antibody, Fc modification Q5 (M252Y/Q311I/N434Y/Y436I)”: in experiment [1], the Kd is 151 nM.

In the case of “anti-BACE1 hIgG1 antibody, Fc modification Q3 (M252Y/T307Q/N434Y/Y436I)”, the Kd turned out to be 170 nM in experiment [1], 6.5 nM in experiment [2] and 202 nM in experiment [5]. The substance also had a Transcytosis Normalized to WT (normalized to WT) in experiment [4] of 137.

For “anti-Abeta hIgG4 antibody, Fc modification Q2 (M252Y/T307Q/M428L/N434Y)”, the Kd in experiment [1] was 339 nM.

With “anti-BACE1 hIgG4 antibody, Fc modification Q2 (M252Y/T307Q/M428L/N434Y)”, the Kd in experiment [1] stood at 370 nM; in experiment [2] it was 6.6 nM.

“anti-BACE1 hIgG4 antibody, Fc modification Q1-IgG4 (M252Y/T307Q/Q311I/N434Y)”: the Kd in experiment [1] is 120 nM; in experiment [2] it was 5.2 nM; in experiment [3] it was 5.22 nM; in experiment [5], 114 nM. Moreover, the Transcytosis Normalized to WT (normalized to WT) in experiment [4] is 82.

With “anti-Abeta hIgG1 antibody, Fc modification Q7 (M252Y/Q311A/N434Y/Y436I)”, the Kd in experiment [1] came out at 292 nM; in experiment [2], 8.2 nM.

In the case of “anti-Abeta hIgG1 antibody, Fc modification Q4 (M252Y/Q311I/M428L/N434Y)”, the Kd in experiment [1] amounted to 667 nM; in experiment [2], 12.8 nM.

On to “anti-BACE1 hIgG1 antibody, Fc modification Q6 (M252Y/M428L/N434Y/Y436I)”, for which the Kd was 194 nM in experiment [1], 8.9 nM in experiment [2], 7.72 nM in experiment [3] and 380 nM in experiment [5]. For the same substance, in experiment [3], the koff came out at 0.00494 s⁻¹. The kon in experiment [3] came to 639000 M⁻¹ s⁻¹. The Transcytosis Normalized to WT (normalized to WT) in experiment [4] amounted to 155.

“anti-Abeta hIgG1 antibody, Fc modification D1 (M252Y/N434Y)”: the values for the Kd in experiment [1] and in experiment [2] were 1150 nM and 14 nM, respectively.

As for “anti-Abeta hIgG1 antibody, Fc modification Q95 (M252Y/T307Q/Q311A/N434Y)”, the Kd was found to be 340 nM in experiment [1] and 8.2 nM in experiment [2].

With “anti-BACE1 hIgG1 antibody, Fc modification Q5 (M252Y/Q311I/N434Y/Y436I)”, the Kd was determined as 8.8 nM in experiment [2], 5.09 nM in experiment [3] and 252 nM in experiment [5]. For the same substance, the Transcytosis Normalized to WT (normalized to WT) in experiment [4] is 133.

As for “anti-Abeta hIgG1 antibody, Fc modification Q2 (M252Y/T307Q/M428L/N434Y)”, the Kd came to 482 nM in experiment [1] and 10.2 nM in experiment [2].

Take “anti-BACE1 hIgG4 antibody, Fc modification Q3-IgG4 (M252Y/T307Q/N434Y/Y436I)”: the Kd in experiment [1] amounted to 124 nM; in experiment [2] it was 4.8 nM; in experiment [3] it was 3.87 nM. Moreover, the Transcytosis Normalized to WT (normalized to WT) in experiment [4] stood at 87.

For “anti-BACE1 hIgG1 antibody, Fc modification T94 (M252Y/N286E/N434Y)”, the values for the Kd in experiment [1], in experiment [3] and in experiment [5] were 380 nM, 13.6 nM and 452 nM, respectively. Also, the Transcytosis Normalized to WT (normalized to WT) in experiment [4] worked out at 87.

On to “anti-Abeta hIgG1 antibody, Fc modification Q1 (M252Y/T307Q/Q311I/N434Y)”, for which the Kd turned out to be 206 nM in experiment [1] and 12.7 nM in experiment [2].

“anti-Abeta hIgG1 antibody, Fc modification T3 (M252Y/Q311I/N434Y)”: the Kd in experiment [1] turned out to be 554 nM; in experiment [2] it was 11.6 nM.

Consider “anti-Abeta hIgG1 antibody, Fc modification Q3 (M252Y/T307Q/N434Y/Y436I)”, for which, in experiment [1], the Kd was 206 nM.

Take “anti-Abeta hIgG1 antibody, Fc modification T94 (M252Y/N286E/N434Y)”: the Kd in experiment [1] came to 521 nM; in experiment [2] it was 10.1 nM.

Regarding “anti-Abeta hIgG4 antibody, Fc modification Q1 (M252Y/T307Q/Q311I/N434Y)”, the dissociation constant Kd was 165 nM in experiment [1] and 6.3 nM in experiment [2].

On to “anti-BACE1 hIgG1 antibody, Fc modification D92 (M252W/N434W)”, for which, in experiment [3], the Kd worked out at 12.4 nM, the koff is 0.0074 s⁻¹ and the kon was determined as 595000 M⁻¹ s⁻¹. The substance further gave a Transcytosis Normalized to WT (normalized to WT) in experiment [4] of 92. Further, the Kd in experiment [5] turned out to be 760 nM.

On to “anti-BACE1 hIgG1 antibody, Fc modification T2 (M252Y/Q311A/N434Y)”, for which, in experiment [3], the equilibrium dissociation constant (Kd) turned out to be 20 nM, the koff was 0.0178 s⁻¹ and the kon turned out to be 908000 M⁻¹ s⁻¹. Moreover, the Transcytosis Normalized to WT (normalized to WT) in experiment [4] came out at 111. Moreover, in experiment [5], the Kd was determined as 614 nM.

On to “anti-BACE1 hIgG1 antibody, Fc modification T13 (N286E/Q311A/N434Y)”, for which, in experiment [3], the Kd amounted to 38 nM, the dissociation rate constant (koff) is 0.0327 s⁻¹ and the kon came to 852000 M⁻¹ s⁻¹. In addition, the Transcytosis Normalized to WT (normalized to WT) in experiment [4] was determined as 108. For the same substance, the Kd in experiment [5] turned out to be 2450 nM.

As for “anti-BACE1 hIgG1 antibody, Fc modification T14 (N286E/Q311I/N434Y)”, in experiment [3], the dissociation constant Kd amounted to 36 nM, the koff worked out at 0.0278 s⁻¹ and the kon was determined as 772000 M⁻¹ s⁻¹. The substance also registered a Transcytosis Normalized to WT (normalized to WT) in experiment [4] of 73. In addition, the Kd in experiment [5] turned out to be 3110 nM.

Consider “anti-BACE1 hIgG1 antibody, Fc modification T1 (M252Y/T307Q/N434Y)”, for which, in experiment [3], the Kd amounted to 12 nM, the koff worked out at 0.0101 s⁻¹ and the kon came out at 874000 M⁻¹ s⁻¹. Moreover, the Transcytosis Normalized to WT (normalized to WT) in experiment [4] was 125. In addition, the Kd in experiment [5] turned out to be 461 nM.

On to “anti-BACE1 hIgG1 antibody, Fc modification T3 (M252Y/Q311I/N434Y)”, for which the figures for the dissociation constant Kd in experiment [1], in experiment [2] and in experiment [3] were 307 nM, 9.1 nM and 14 nM, respectively. For the same substance, in experiment [4], the Transcytosis Normalized to WT (normalized to WT) came to 137.

Regarding “anti-Abeta hIgG4 antibody, Fc modification Q3 (M252Y/T307Q/N434Y/Y436I)”, the Kd was 158 nM in experiment [1] and 5.9 nM in experiment [2].

For the substance “anti-BACE1 hIgG1 antibody, Fc modification T96 (M252Y/V308P/N434Y)”, in experiment [3], the Kd amounted to 3.54 nM, the koff worked out at 0.00314 s⁻¹ and the on-rate constant (kon) worked out at 887000 M⁻¹ s⁻¹. The substance further had a Transcytosis Normalized to WT (normalized to WT) in experiment [4] of 94. Besides, the dissociation constant (Kd) in experiment [5] is 123 nM.

Consider “anti-Abeta hIgG1 antibody, Fc modification Q6 (M252Y/M428L/N434Y/Y436I)”, for which the dissociation constant Kd was 367 nM in experiment [1] and 10.2 nM in experiment [2].

As to “anti-Abeta hIgG1 antibody, Fc modification Q5 (M252Y/Q311I/N434Y/Y436I)”, the Kd in experiment [1] was 265 nM; in experiment [2] it was 10.8 nM.

As to “anti-BACE1 hIgG1 antibody, Fc modification Q4 (M252Y/Q311I/M428L/N434Y)”, in experiment [3], the Kd was determined as 57.3 nM, the koff worked out at 0.0107 s⁻¹ and the kon turned out to be 186000 M⁻¹ s⁻¹. In addition, the Transcytosis Normalized to WT (normalized to WT) in experiment [4] is 159. Moreover, the Kd in experiment [5] was 1270 nM.
